Common to all, as to experiment: enzyme inhibition kinetics
Test [1] deals with T1, ADAMTS5-5 (human ADAMTS-5, catalytic and disintegrin domain, C-terminal FLAG-tag) (human, UniProt Q9UNA0 262-566).
T1 sequence (looked up): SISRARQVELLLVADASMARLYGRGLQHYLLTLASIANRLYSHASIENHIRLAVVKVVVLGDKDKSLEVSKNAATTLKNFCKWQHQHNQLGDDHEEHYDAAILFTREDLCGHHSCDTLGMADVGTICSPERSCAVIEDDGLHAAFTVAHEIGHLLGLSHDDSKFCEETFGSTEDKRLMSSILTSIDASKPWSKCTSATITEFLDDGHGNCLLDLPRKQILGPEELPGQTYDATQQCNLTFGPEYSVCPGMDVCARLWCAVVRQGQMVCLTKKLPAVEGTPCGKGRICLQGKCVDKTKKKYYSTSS

Test [2] deals with T2, ADAMTS5-1 (full-length human ADAMTS-5, C-terminal FLAG-tag) (human, UniProt Q9UNA0 262-930).
T2 sequence (looked up): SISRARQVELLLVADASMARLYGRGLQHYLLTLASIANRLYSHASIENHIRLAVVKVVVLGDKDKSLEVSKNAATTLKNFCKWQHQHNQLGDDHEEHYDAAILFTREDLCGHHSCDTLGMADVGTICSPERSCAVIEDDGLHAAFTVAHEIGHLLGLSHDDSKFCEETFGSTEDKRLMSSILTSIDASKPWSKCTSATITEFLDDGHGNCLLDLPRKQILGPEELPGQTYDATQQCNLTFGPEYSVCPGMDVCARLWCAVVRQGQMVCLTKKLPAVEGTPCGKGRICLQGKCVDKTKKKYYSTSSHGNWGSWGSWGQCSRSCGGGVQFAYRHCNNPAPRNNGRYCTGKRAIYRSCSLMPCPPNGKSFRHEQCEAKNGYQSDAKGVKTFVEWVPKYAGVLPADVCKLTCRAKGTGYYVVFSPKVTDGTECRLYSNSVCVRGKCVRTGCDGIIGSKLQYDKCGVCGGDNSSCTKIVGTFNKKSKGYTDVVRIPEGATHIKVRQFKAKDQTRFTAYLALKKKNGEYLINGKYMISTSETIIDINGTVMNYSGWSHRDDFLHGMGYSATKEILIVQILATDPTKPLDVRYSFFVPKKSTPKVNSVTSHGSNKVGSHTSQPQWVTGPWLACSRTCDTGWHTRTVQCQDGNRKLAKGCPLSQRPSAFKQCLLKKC

For test [3], the target named is T3, ADAMTS4-4 (human ADAMTS-4 deletion mutant, C-terminal FLAG-tag) (human, UniProt O75173 213-519).
T3 sequence (looked up): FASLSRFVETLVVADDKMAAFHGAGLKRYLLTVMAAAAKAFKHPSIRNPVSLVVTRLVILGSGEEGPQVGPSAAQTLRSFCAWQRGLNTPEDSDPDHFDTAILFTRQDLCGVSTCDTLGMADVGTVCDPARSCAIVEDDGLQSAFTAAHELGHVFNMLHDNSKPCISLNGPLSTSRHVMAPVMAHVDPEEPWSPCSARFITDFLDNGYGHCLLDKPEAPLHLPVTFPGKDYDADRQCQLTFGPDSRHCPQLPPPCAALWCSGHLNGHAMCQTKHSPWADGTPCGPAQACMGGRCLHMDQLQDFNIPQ

In test [4] the target is T4, ADAMTS4-1 (full-length human ADAMTS-4, C-terminal FLAG-tag) (human, UniProt O75173 213-837).
T4 sequence (looked up): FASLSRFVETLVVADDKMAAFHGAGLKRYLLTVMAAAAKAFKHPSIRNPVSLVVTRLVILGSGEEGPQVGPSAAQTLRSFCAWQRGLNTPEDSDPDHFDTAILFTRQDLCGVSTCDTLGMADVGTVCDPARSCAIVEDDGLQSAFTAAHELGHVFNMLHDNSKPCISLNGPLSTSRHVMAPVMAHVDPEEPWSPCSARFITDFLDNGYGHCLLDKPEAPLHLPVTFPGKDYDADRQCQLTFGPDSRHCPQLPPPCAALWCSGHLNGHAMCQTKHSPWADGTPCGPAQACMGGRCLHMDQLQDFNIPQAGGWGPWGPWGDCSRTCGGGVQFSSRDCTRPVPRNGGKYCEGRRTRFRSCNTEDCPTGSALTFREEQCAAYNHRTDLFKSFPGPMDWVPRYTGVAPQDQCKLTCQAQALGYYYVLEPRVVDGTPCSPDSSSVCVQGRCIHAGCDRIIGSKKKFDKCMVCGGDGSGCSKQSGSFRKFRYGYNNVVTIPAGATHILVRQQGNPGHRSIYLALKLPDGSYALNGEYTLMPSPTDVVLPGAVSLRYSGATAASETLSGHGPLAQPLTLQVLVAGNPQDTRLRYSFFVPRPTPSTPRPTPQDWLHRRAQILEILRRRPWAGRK

B1: FLAG-tagged glycosylated human TIMP-3 (full-length tissue inhibitor of metalloproteinases 3), expressed in HEK293 (natural protein, UniProt P35625 24-211, looked up)
chain: CTCSPSHPQDAFCNSDIVIRAKVVGKKLVKEGPFGTLVYTIKQMKMYRGFTKMPHVQYIHTEASESLCGLKLEVNKYQYLLTGRVYDGKMYTGLCNFVERWDQLTLSQRKGLNYRYHLGCNCKIKSCYYLPCFVTSKNECLWTDMLSNFGYPGYQSKHYACIRQKGGYCSWYRGWAPPDKSIINATDP
modifications: glycosylated (only the 27 kDa glycosylated form remained after purification; single N-glycosylation site in the C-terminal domain)
One may read the Ki as the equilibrium dissociation constant of an inhibitor or competing ligand from its target. Read a low Ki as a stronger hold on the target. B1: the Ki in test [1] stood at 1.89 nM; in test [2], 0.7 nM; in test [3] it was 0.38 nM; in test [4], 0.39 nM.

For the origin of these results see article PMC2835468 (Matrix biology : journal of the International Society for …, 2009).
